Measurements as given in paper doi:10.1101/2025.07.08.663703 (2025).

B1: MBP-tagged Mre11-C49 peptide (Mre11 C-terminal residues 644-692) [S. cerevisiae] / HisSUMO-tagged Mer2 [S. cerevisiae] (parent complex)
chain 1: SYGLLNGRKTKTKTRPAASTKTASRRGKGRASRTPKTDILGSLLAKKRK
chain 2: MVARGRTDEISTDVSEANSEHSLMITETSSPFRSIFSHSGKVANAGALEESDKQILEWAGKLELESMELRENSDKLIKVLNENSKTLCKSLNKFNQLLEQDAATNGNVKTLIKDLASQIENQLDKVSTAMLSKGDEKKTKSDSSYRQVLVEEISRYNSKITRHVTNKQHETEKSMRCTQEMLFNVGSQLEDVHKVLLSLSKDMHSLQTRQTALEMAFREKADHAYDRPDVSLNGTTLLHDMDEAHDKQRKKSVPPPRMMVTRSMKRRRSSSPTLSTSQNHNSEDNDDASHRLKRAARTIIPWEELRPDTLESEL

Variants of: B1
Experiment: co-expression Ni-NTA pulldown, anti-MBP immunoblot quantification; co-expressed in E. coli; at least seven independent samples; parent: 1; read off a plot

Row | Variant | ratio to parent
1 | chain 2 MVARGRTDEISTDVSEANSEHSLMITETSSPFRSIFSHSGKVANAGALEASDKAILAWAGALELESMELRENSDKLIKVLNENSKTLCKSLNKFNQLLEQDAATNGNVKTLIKDLASQIENQLDKVSTAMLSKGDEKKTKSDSSYRQVLVEEISRYNSKITRHVTNKQHETEKSMRCTQEMLFNVGSQLEDVHKVLLSLSKDMHSLQTRQTALEMAFREKADHAYDRPDVSLNGTTLLHDMDEAHDKQRKKSVPPPRMMVTRSMKRRRSSSPTLSTSQNHNSEDNDDASHRLKRAARTIIPWEELRPDTLESEL [chain 2 E50A, chain 2 Q54A, chain 2 E57A, chain 2 K61A] | ~0.26

Variants of: B1
Experiment: as above
Remark: another data set of the same source

Row | Variant | ratio to parent
2 | chain 1 SYGLLNGRKTKTKTRPAASTKTASRRGKGRASRTPKTDIAGSALAKARK [chain 1 L40A, chain 1 L43A, chain 1 K47A] | ~0.35
